Data from the supplement of paper PMC12042874.
± gives the uncertainty stated by the source.

Test: amyloid nucleation score (Sup35N fusion, yeast selection) (log enrichment); library NNK3; higher = more nucleation; inactive = no reads after selection
Summary of the method: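 Output and input plasmid inserts were sequenced by Illumina after psi-negative yeast carrying Sup35N fused to peptides of 20 random codons had been induced 24 hours with 100 μM copper sulfate and grown 7 days at 30°C on medium lacking adenine and uracil. The nucleation score is the DiMSum log enrichment of output over input reads, centred on the mode score of non-aggregating sequences. Sequences with under 100 input reads were excluded.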

| Substance | amyloid nucleation score |
| --- | --- |
| RKFDPSISGSCWNVGISCVV | inactive |
| TKHETSLVCRLLTETRFKNI | inactive |
| SDYGSFLEFH | -0.27 ± 0.79 |
| TRFTACGYRKSCYWWIVF | inactive |
| QWGSWE | inactive |
| CPTIPMVGTF | inactive |
| RCMPRCALACTRLSPGRSVV | inactive |
| PSHSLSGRCHV | inactive |
| RRYSRIRYRRKLVNWLFYIM | inactive |
| WMFVRGDAGLRFVGG | 1.05 ± 0.21 |
| YKGDKFVRCSVW | inactive |
| FKKSLYVLSDFSVLYSMCSW | inactive |
| NNCTSTRSMVVGEYRKKGAL | -0.46 ± 0.84 |
| GLNDHSLI | inactive |
| GSFYCLYFVGDVIIILTCLR | inactive |
| NNGRYLMGRRKESDLLLGQW | inactive |
| SVCSCNAKYARIGMMLFLLG | 1.16 ± 0.075 |
| GFLDDYIIMDQLLHEFVKRF | inactive |
| HSVASDYRTAFLLSHT | 1.39 ± 0.089 |
| CFLYLLLQTN | inactive |
| SLFFLSMFVHLMDEMWDWES | inactive |
| IPSVFKLSVWGYADSTCLRR | inactive |
| ASDRMKGVLNLLQYVGYSSM | inactive |

| Substance | amyloid nucleation score |
| --- | --- |
| HHKITCLNRW | inactive |
| IWGMIFIGKSSYDISDYVCH | inactive |
| RLKMGLSN | -0.846 ± 0.8 |
| YALMLVFERHSRAARSVGMG | inactive |
| MRILKHMFQVDWLVNAMDAE | inactive |
| VYRDFSGYFRLGWFDMSSVR | inactive |
| VRDRCRIHCAYNRSKGTVSN | inactive |
| GMERFNGFKRVFMDSGCLHR | -0.707 ± 0.96 |
| VGDVFSKRCHMRLFMNSLER | inactive |
| VLIYLDRCRNFDEKGFHNFC | 0.448 ± 0.21 |
| GADKFSMLRVYGICRLGSAC | -0.024 ± 0.93 |
| IGVLCALDGISRIAFFSLLL | inactive |
| MGRISVLPYLKFSYAIWY | inactive |
| MLLSSVPDCFSWMGLRFCGD | inactive |
| HITLKSYARIV | inactive |
| HSSVSMGLVGGSTE | inactive |
| LRFVHDVLDFGASMSLRRK | 0.606 ± 0.1 |
| SVPDCELVAYKSSLWCTHLT | inactive |
| FSHHIDTFV | inactive |
| VRVLFGPFYYVFGSYLIGLV | inactive |
| YVDIY | inactive |
| FISGVYMKCIGCSS | inactive |
| ICTECAYFSTWRHSMCITWG | inactive |

| Substance | amyloid nucleation score |
| --- | --- |
| WLLTM | inactive |
| CSGYVNGLVIQGKCAKDVVW | inactive |
| FWEYVRKLIEYEYLGSR | inactive |
| CSMSAIMYYSARFDV | inactive |
| GGRYTVAAEVKVTHAYATG | inactive |
| RNATIALCAGWVIYDSVFKG | 2.27 ± 0.073 |
| TLIFRLYLRRNCNAVFCFVV | 0.084 ± 0.56 |
| VWKIHYCFDVFIMV | inactive |
| ELRQFSP | inactive |
| MMRWIDVGYLVDLYSLRISG | inactive |
| RSGKVSFFIGYNVVGLMRFR | inactive |
| VMAYRHAGRRFSDPKSIKIS | inactive |
| CRSLSLTSGIKF | inactive |
| DFYIIDSLIRMCMRICEFVL | inactive |
| HSYFDFYSYDSYNVRHRSVK | inactive |
| SAYVYTD | -0.156 ± 0.66 |
| LYRSMH | inactive |
| TNDAGHVWYSLCLRIFNTNV | inactive |
| YLDSSSS | inactive |
| WYTIRDYRAFLSVM | inactive |
| TGWSWISLYWLCSNMVIVNR | inactive |
| TMAYGAPLPHSTSYYITIMS | inactive |
| TCCICIMSSYRLGRNLLIEL | -0.075 ± 0.26 |

| Substance | amyloid nucleation score |
| --- | --- |
| DYMRFTYRIMNCLSDCYITN | inactive |
| VICRKLVMPFVESNRWHWSN | inactive |
| CSLWSMQGYLHEWRICCWRH | inactive |
| RFTDRCTLHFQMFVVLRAVI | inactive |
| MTLFVSDTVRSLGNGNWA | inactive |
| HALSRDVVKMLCSFNNYLTW | inactive |
| MFDLYN | inactive |
| FFSASQRVAY | inactive |
| VYRNVHMFSRWQDFNPLGAR | inactive |
| SQFLLYTVQQFRWTACHVAF | inactive |
| VKEMFKF | inactive |
| QMFSLTFIVMFLFFPSRGCR | inactive |
| KRISDRIFCFCLKHGVGLFG | inactive |
| LYAYVQVIGDQA | inactive |
| NLSWKGNAQDCLMGSVL | inactive |
| YRVKPFKWKYARRRLVIRWV | inactive |
| SLDLNCQIMLYKSMRCDEE | 1.61 ± 0.064 |
| HRTCITTNDDCLSRGTLP | inactive |
| SHSMM | -0.218 ± 0.66 |
| VSHLAQHCNRLLLVSMLLGA | inactive |
| PKCRMSMA | inactive |
| LVRSNGC | inactive |
| SLLSRFIEEGASCRCTRDG | inactive |

| Substance | amyloid nucleation score |
| --- | --- |
| ADFTRGGT | inactive |
| EHYFSTSIVGCGFFIWWCWG | inactive |
| VVTASYWLLCLSLYFSAS | inactive |
| DCFDFIEETGTNKAFRVWGI | 0.283 ± 0.24 |
| SNSFVDFRHSDWF | inactive |
| LLHCQCSC | inactive |
| INDLKGVVLNIWIKYIV | 0.602 ± 0.14 |
| PVDIDPLGSFVD | inactive |
| VWRHQDLGARAKAASHG | inactive |
| FLLFFAKWCLY | inactive |
| KLPMRVGLM | inactive |
| LTIVAYVVATYSFCWWISVG | inactive |
| VGETWNSVACVLTQLWLTCE | -0.014 ± 0.26 |
| TTGPYLSATEHTVGHLR | inactive |
| NVYMHAMCRWDVQGTAR | inactive |
| SCNRSSSV | inactive |
| CVSNISSFGKLEFTYVIEVW | inactive |
| VTPVFMIWAS | inactive |
| YPGMQEYVLGWNVWREK | inactive |
| ITYAQSLKLCRTRVIGGLMY | 0.445 ± 0.2 |
| MSSNFTRS | inactive |
| LRWMFPLPRNVSHCSLA | inactive |
| HDVDLGWFSRYGIFRALRRE | inactive |

| Substance | amyloid nucleation score |
| --- | --- |
| YIYEEASK | inactive |
| LDTDWLGYSSLP | inactive |
| LWLTLGDGIEGVYPRVGVKL | inactive |
| QYANVGSCVCDRIIRCFYGW | inactive |
| VIIINRVIENRWSDRHEITN | 2.57 ± 0.053 |
| ISRGVVIGTFRRLIERSCGT | inactive |
| ISILLIFPCEAVIFLPF | inactive |
| DLAFGMSFDWT | inactive |
| VNLEYYV | inactive |
| SCRDDLLVMSKVTLITMT | inactive |
| DIPSVGQKRCSHGDRYNSAK | inactive |
| VSVYKNVAFFISWI | 1.58 ± 0.09 |
| MSSGLTVSNVL | inactive |
| LCAFHKRNRQEVACVMFVKS | inactive |
| DLHLLYKYILFAKLLV | inactive |
| FRHFRSLLSVFLVYRFQLSV | inactive |
| ILVGNFSILWY | inactive |
| DYVRKWS | inactive |
| NSFFKGGWMHPG | inactive |
| RMESTYGYVLDVSIEVLWGI | inactive |
| NVYLKLTA | inactive |
| AFYYWVDEMVSLNIRLSFYN | inactive |
| HYKLSSMVSVYLLTIL | -0.307 ± 0.88 |

| Substance | amyloid nucleation score |
| --- | --- |
| THLCIEMLRM | -0.297 ± 0.88 |
| SRQKINHQCCYKFCVVDYY | 1.56 ± 0.091 |
| MGLIERLWWSTPIKF | inactive |
| LIGSYICYAVGLMVTLNNWW | inactive |
| GYILVLYADRAKICDKFYVG | 2.27 ± 0.05 |
| SFLLFYVLRYP | inactive |
| FAMETLNSSTFRCYHQFYGF | inactive |
| SMSSELCLGNRHYG | inactive |
| LYSKCFGVRLHYVFSMSWSG | inactive |
| THSGQEEWLVNKDAS | inactive |
| FLYRDSSCRLSLM | inactive |
| TMCKRLVVTYQLAYWRVSV | inactive |
| CLKSA | -0.912 ± 0.93 |
| CSFRIMGDQMIGKTCCRFGH | inactive |
| LTYTHLCEPSEFR | inactive |
| VIICIAGGLPMRTH | 1.71 ± 0.06 |
| GFKFKYSYRIDLWEGHWVVR | inactive |
| VSKYIVSHIASSWSWGQWVL | inactive |
| IVVLNVNTPWSMFQGVGSIQ | 2.58 ± 0.085 |
| EADPYIPKSVFGVGFNGHVV | inactive |
| TCSYKSC | inactive |
| VWVFKTNFVFRVQLGHSLGC | 1.46 ± 0.094 |
| SFLGCFHGDY | inactive |
